Laboratory results as given in PMC4643051.

B1: unnamed (parent)
chain 1: DSGCVVSWKNKELKCGSGIFITDNVHTWTEQYKFQPESPSKLASAIQKAHEEGICGIRSVTRLENLMWKQITPELNHILSENEVKLTIMTGDIKGIMQAGKRSLRPQPTELKYSWKTWGKAKMLSTESHNQTFLIDGPETAECPNTNRAWNSLEVEDYGFGVFTTNIWLKLKEKQDVFCDSKLMSAAIKDNRAVHADMGYWIESALNDTWKIEKASFIEVKNCHWPKSHTLWSNGVLESEMIIPKNLAGPVSQHNYRPGYHTQITGPWHLGKLEMDFDFCDGTTVVVTEDCGNRGPSLRTTTASGKLITEWCCRSCTLPPLRYRGEDGCWYGMEIRPLKEKEENLVNSLVTA
chain 2: FHLTTRNGEPHMIVSRQEKGKSLLFKTEDGVNMCTLMAMDLGELCEDTITYKCPLLRQNEPEDIDCWCNSTSTWVTYGTCTTMGEHRRQKRSVALVPHVGMGLETRTETWMSSEGAWKHVQRIETWILRHPGFTMMAAILAYTIGTTHFQRALIFILLTAVTPSMT

Variants of: B1
Settings: with partner chain of the complex shown;; read off a plot

In order of rising ratio to parent:
1. chain 1 S114A  0.27 fold of WT
2. chain 1 W115A  0.45 fold of WT
3. chain 1 D180A  1.5 fold of WT
4. chain 1 T117A  1.5 fold of WT
5. chain 1 T301A  1.7 fold of WT
